Laboratory results published in patent US20220144956A1 (published 2022).

target: human TGFßRII (antigen of the Octet experiments) (human, UniProt P37173 23-166); assay: BLI (Octet)
Sequence (P37173 23-166): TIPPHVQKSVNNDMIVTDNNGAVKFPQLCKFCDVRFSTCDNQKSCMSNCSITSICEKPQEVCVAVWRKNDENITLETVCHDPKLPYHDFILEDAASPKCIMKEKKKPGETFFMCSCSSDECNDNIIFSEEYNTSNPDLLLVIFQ

| Binder | Kd [pM] |
| --- | --- |
| H1.24 L1 XENP34480 (antibody, V domains shown) VH: QLQVQESGPGLVKPSETLSLTCTVSGGSISNSHFSWGWIRQPPGKGLEWIGSFYYGEKTYYNPSLKSRATISIDTSKSQFSLKLSSVTAADTAVYYCPRGPTMIRGVIDSWGQGTLVTVSS VL: EIVLTQSPATLSLSPGERATLSCRASQSVRSYLAWYQQKPGQAPRLLIYDASNRATGIPARFSGSGSGTDFTLTISSLEPEDFAVYYCQQRSNWPPTFGQGTKVEIK | 199 |
| H1.37 L1 XENP34493 (antibody, V domains shown) VH: QLQVQESGPGLVKPSETLSLTCTVSGGSISNSYFSWGWVRQPPGKGLEWIGSFYYGEKTYYNPSLKSRATISIDTSKSQFSLKLSSVTAADTAVYYCPRGPTMIRGVIDSWGQGTLVTVSS VL: EIVLTQSPATLSLSPGERATLSCRASQSVRSYLAWYQQKPGQAPRLLIYDASNRATGIPARFSGSGSGTDFTLTISSLEPEDFAVYYCQQRSNWPPTFGQGTKVEIK | 391 |
| H1.36 L1 XENP34492 (antibody, V domains shown) VH: QLQVQESGPGLVKPSETLSLTCTVSGGSISNSYFSWSWIRQPPGKGLEWIGSFYYGEKTYYNPSLKSRATISIDTSKSQFSLKLSSVTAADTAVYYCPRGPTMIRGVIDSWGQGTLVTVSS VL: EIVLTQSPATLSLSPGERATLSCRASQSVRSYLAWYQQKPGQAPRLLIYDASNRATGIPARFSGSGSGTDFTLTISSLEPEDFAVYYCQQRSNWPPTFGQGTKVEIK | 1760 |
| H1.27 L1 XENP34483 (antibody, V domains shown) VH: QLQVQESGPGLVKPSETLSLTCTVSGGSISNSYYSWGWIRQPPGKGLEWIGSFYYGEKTYYNPSLKSRATISIDTSKSQFSLKLSSVTAADTAVYYCPRGPTMIRGVIDSWGQGTLVTVSS VL: EIVLTQSPATLSLSPGERATLSCRASQSVRSYLAWYQQKPGQAPRLLIYDASNRATGIPARFSGSGSGTDFTLTISSLEPEDFAVYYCQQRSNWPPTFGQGTKVEIK | 809 |
| H1.21 L1 XENP34477 (antibody, V domains shown) VH: QLQVQESGPGLVKPSETLSLTCTVSGGSISNSAFSWGWIRQPPGKGLEWIGSFYYGEKTYYNPSLKSRATISIDTSKSQFSLKLSSVTAADTAVYYCPRGPTMIRGVIDSWGQGTLVTVSS VL: EIVLTQSPATLSLSPGERATLSCRASQSVRSYLAWYQQKPGQAPRLLIYDASNRATGIPARFSGSGSGTDFTLTISSLEPEDFAVYYCQQRSNWPPTFGQGTKVEIK | 455 |
| H1.4 L1 XENP34460 (antibody, V domains shown) VH: QLQLQESGPGLVKPSETLSLTCTVSGGSISNSYFSWGWIRQPPGKGLEWIGSFYYGEKTYYNPSLKSRATISIDTSKSQFSLKLSSVTAADTAVYYCPRGPTMIRGVIDSWGQGTLVTVSS VL: EIVLTQSPATLSLSPGERATLSCRASQSVRSYLAWYQQKPGQAPRLLIYDASNRATGIPARFSGSGSGTDFTLTISSLEPEDFAVYYCQQRSNWPPTFGQGTKVEIK | 128 |
| H1.12 L1 XENP34468 (antibody, V domains shown) VH: QLQVQESGPGLVKPSETLSLTCTVSGGSISESYFSWGWIRQPPGKGLEWIGSFYYGEKTYYNPSLKSRATISIDTSKSQFSLKLSSVTAADTAVYYCPRGPTMIRGVIDSWGQGTLVTVSS VL: EIVLTQSPATLSLSPGERATLSCRASQSVRSYLAWYQQKPGQAPRLLIYDASNRATGIPARFSGSGSGTDFTLTISSLEPEDFAVYYCQQRSNWPPTFGQGTKVEIK | 374 |
| H1.38 L1 XENP34494 (antibody, V domains shown) VH: QLQVQESGPGLVKPSETLSLTCTVSGGSISNSYFSWGWIRQAPGKGLEWIGSFYYGEKTYYNPSLKSRATISIDTSKSQFSLKLSSVTAADTAVYYCPRGPTMIRGVIDSWGQGTLVTVSS VL: EIVLTQSPATLSLSPGERATLSCRASQSVRSYLAWYQQKPGQAPRLLIYDASNRATGIPARFSGSGSGTDFTLTISSLEPEDFAVYYCQQRSNWPPTFGQGTKVEIK | 325 |
| H1.8 L1 XENP34464 (antibody, V domains shown) VH: QLQVQESGPGLVKPSETLSLTCTVSGYSISNSYFSWGWIRQPPGKGLEWIGSFYYGEKTYYNPSLKSRATISIDTSKSQFSLKLSSVTAADTAVYYCPRGPTMIRGVIDSWGQGTLVTVSS VL: EIVLTQSPATLSLSPGERATLSCRASQSVRSYLAWYQQKPGQAPRLLIYDASNRATGIPARFSGSGSGTDFTLTISSLEPEDFAVYYCQQRSNWPPTFGQGTKVEIK | 238 |
| H1.14 L1 XENP34470 (antibody, V domains shown) VH: QLQVQESGPGLVKPSETLSLTCTVSGGSISSSYFSWGWIRQPPGKGLEWIGSFYYGEKTYYNPSLKSRATISIDTSKSQFSLKLSSVTAADTAVYYCPRGPTMIRGVIDSWGQGTLVTVSS VL: EIVLTQSPATLSLSPGERATLSCRASQSVRSYLAWYQQKPGQAPRLLIYDASNRATGIPARFSGSGSGTDFTLTISSLEPEDFAVYYCQQRSNWPPTFGQGTKVEIK | 181 |
| H1.6 L1 XENP34462 (antibody, V domains shown) VH: QLQVQESGPGLVKPSQTLSLTCTVSGGSISNSYFSWGWIRQPPGKGLEWIGSFYYGEKTYYNPSLKSRATISIDTSKSQFSLKLSSVTAADTAVYYCPRGPTMIRGVIDSWGQGTLVTVSS VL: EIVLTQSPATLSLSPGERATLSCRASQSVRSYLAWYQQKPGQAPRLLIYDASNRATGIPARFSGSGSGTDFTLTISSLEPEDFAVYYCQQRSNWPPTFGQGTKVEIK | 24.2 |
| H1.30 L1 XENP34486 (antibody, V domains shown) VH: QLQVQESGPGLVKPSETLSLTCTVSGGSISNSYFYWGWIRQPPGKGLEWIGSFYYGEKTYYNPSLKSRATISIDTSKSQFSLKLSSVTAADTAVYYCPRGPTMIRGVIDSWGQGTLVTVSS VL: EIVLTQSPATLSLSPGERATLSCRASQSVRSYLAWYQQKPGQAPRLLIYDASNRATGIPARFSGSGSGTDFTLTISSLEPEDFAVYYCQQRSNWPPTFGQGTKVEIK | 5900 |
| H1.15 L1 XENP34471 (antibody, V domains shown) VH: QLQVQESGPGLVKPSETLSLTCTVSGGSISTSYFSWGWIRQPPGKGLEWIGSFYYGEKTYYNPSLKSRATISIDTSKSQFSLKLSSVTAADTAVYYCPRGPTMIRGVIDSWGQGTLVTVSS VL: EIVLTQSPATLSLSPGERATLSCRASQSVRSYLAWYQQKPGQAPRLLIYDASNRATGIPARFSGSGSGTDFTLTISSLEPEDFAVYYCQQRSNWPPTFGQGTKVEIK | 11.5 |
| H1.1 L1 XENP28299 (antibody, V domains shown) VH: QLQVQESGPGLVKPSETLSLTCTVSGGSISNSYFSWGWIRQPPGKGLEWIGSFYYGEKTYYNPSLKSRATISIDTSKSQFSLKLSSVTAADTAVYYCPRGPTVIRGVIDSWGQGTLVTVSS VL: EIVLTQSPATLSLSPGERATLSCRASQSVRSYLAWYQQKPGQAPRLLIYDASNRATGIPARFSGSGSGTDFTLTISSLEPEDFAVYYCQQRSNWPPTFGQGTKVEIK | 325 |
| H1.19 L1 XENP34475 (antibody, V domains shown) VH: QLQVQESGPGLVKPSETLSLTCTVSGGSISNGYFSWGWIRQPPGKGLEWIGSFYYGEKTYYNPSLKSRATISIDTSKSQFSLKLSSVTAADTAVYYCPRGPTMIRGVIDSWGQGTLVTVSS VL: EIVLTQSPATLSLSPGERATLSCRASQSVRSYLAWYQQKPGQAPRLLIYDASNRATGIPARFSGSGSGTDFTLTISSLEPEDFAVYYCQQRSNWPPTFGQGTKVEIK | 836 |
| H1.23 L1 XENP34479 (antibody, V domains shown) VH: QLQVQESGPGLVKPSETLSLTCTVSGGSISNSGFSWGWIRQPPGKGLEWIGSFYYGEKTYYNPSLKSRATISIDTSKSQFSLKLSSVTAADTAVYYCPRGPTMIRGVIDSWGQGTLVTVSS VL: EIVLTQSPATLSLSPGERATLSCRASQSVRSYLAWYQQKPGQAPRLLIYDASNRATGIPARFSGSGSGTDFTLTISSLEPEDFAVYYCQQRSNWPPTFGQGTKVEIK | 767 |
| H1.22 L1 XENP34478 (antibody, V domains shown) VH: QLQVQESGPGLVKPSETLSLTCTVSGGSISNSDFSWGWIRQPPGKGLEWIGSFYYGEKTYYNPSLKSRATISIDTSKSQFSLKLSSVTAADTAVYYCPRGPTMIRGVIDSWGQGTLVTVSS VL: EIVLTQSPATLSLSPGERATLSCRASQSVRSYLAWYQQKPGQAPRLLIYDASNRATGIPARFSGSGSGTDFTLTISSLEPEDFAVYYCQQRSNWPPTFGQGTKVEIK | 1970 |
| H1.10 L1 XENP34466 (antibody, V domains shown) VH: QLQVQESGPGLVKPSETLSLTCTVSGGSVSNSYFSWGWIRQPPGKGLEWIGSFYYGEKTYYNPSLKSRATISIDTSKSQFSLKLSSVTAADTAVYYCPRGPTMIRGVIDSWGQGTLVTVSS VL: EIVLTQSPATLSLSPGERATLSCRASQSVRSYLAWYQQKPGQAPRLLIYDASNRATGIPARFSGSGSGTDFTLTISSLEPEDFAVYYCQQRSNWPPTFGQGTKVEIK | 182 |
| H1.13 L1 XENP34469 (antibody, V domains shown) VH: QLQVQESGPGLVKPSETLSLTCTVSGGSISGSYFSWGWIRQPPGKGLEWIGSFYYGEKTYYNPSLKSRATISIDTSKSQFSLKLSSVTAADTAVYYCPRGPTMIRGVIDSWGQGTLVTVSS VL: EIVLTQSPATLSLSPGERATLSCRASQSVRSYLAWYQQKPGQAPRLLIYDASNRATGIPARFSGSGSGTDFTLTISSLEPEDFAVYYCQQRSNWPPTFGQGTKVEIK | 1000 |
| H1.28 L1 XENP34484 (antibody, V domains shown) VH: QLQVQESGPGLVKPSETLSLTCTVSGGSISNSYFAWGWIRQPPGKGLEWIGSFYYGEKTYYNPSLKSRATISIDTSKSQFSLKLSSVTAADTAVYYCPRGPTMIRGVIDSWGQGTLVTVSS VL: EIVLTQSPATLSLSPGERATLSCRASQSVRSYLAWYQQKPGQAPRLLIYDASNRATGIPARFSGSGSGTDFTLTISSLEPEDFAVYYCQQRSNWPPTFGQGTKVEIK | 3600 |
| H1.7 L1 XENP34463 (antibody, V domains shown) VH: QLQVQESGPGLVKPSETLSLTCAVSGGSISNSYFSWGWIRQPPGKGLEWIGSFYYGEKTYYNPSLKSRATISIDTSKSQFSLKLSSVTAADTAVYYCPRGPTMIRGVIDSWGQGTLVTVSS VL: EIVLTQSPATLSLSPGERATLSCRASQSVRSYLAWYQQKPGQAPRLLIYDASNRATGIPARFSGSGSGTDFTLTISSLEPEDFAVYYCQQRSNWPPTFGQGTKVEIK | 316 |
| H1.2 L1 XENP34458 (antibody, V domains shown) VH: QVQVQESGPGLVKPSETLSLTCTVSGGSISNSYFSWGWIRQPPGKGLEWIGSFYYGEKTYYNPSLKSRATISIDTSKSQFSLKLSSVTAADTAVYYCPRGPTMIRGVIDSWGQGTLVTVSS VL: EIVLTQSPATLSLSPGERATLSCRASQSVRSYLAWYQQKPGQAPRLLIYDASNRATGIPARFSGSGSGTDFTLTISSLEPEDFAVYYCQQRSNWPPTFGQGTKVEIK | 1 |
